Test results reported in US20160194407A1 (AstraZeneca / MedImmune, published 2016).
Residue numbers refer to the chain shown, from its start.

Legend:
human CD73 K180A + N185G = target: T1, human CD73 K180A + N185G (human, UniProt P21589 27-553, K180A; N185G); experiment: SPR ProteOn, CD73 variant on HTG chip
T1 sequence: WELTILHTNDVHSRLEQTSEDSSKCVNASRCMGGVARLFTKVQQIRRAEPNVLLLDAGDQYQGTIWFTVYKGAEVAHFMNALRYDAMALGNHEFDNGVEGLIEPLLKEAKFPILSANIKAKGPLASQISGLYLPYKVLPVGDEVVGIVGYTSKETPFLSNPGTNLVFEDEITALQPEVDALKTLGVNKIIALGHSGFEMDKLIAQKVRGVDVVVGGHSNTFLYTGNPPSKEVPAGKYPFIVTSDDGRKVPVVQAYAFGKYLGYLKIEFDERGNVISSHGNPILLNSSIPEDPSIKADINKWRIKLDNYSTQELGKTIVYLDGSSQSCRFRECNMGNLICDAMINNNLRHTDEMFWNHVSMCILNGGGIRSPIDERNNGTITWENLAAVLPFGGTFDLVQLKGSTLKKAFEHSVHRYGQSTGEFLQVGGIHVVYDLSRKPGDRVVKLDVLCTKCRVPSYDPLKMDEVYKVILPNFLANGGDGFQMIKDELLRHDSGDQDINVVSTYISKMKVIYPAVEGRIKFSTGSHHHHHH

cynomolgus CD73 on cells = target: T2, cynomolgus CD73 on cells (cynomolgus); experiment: flow cytometry on MK-1 cells, one-site fit of median fluorescence
T2 construct: whole, on cells; also called native CD73 on MK-1 cells (cynomolgus)
Description: All flow cytometry experiments were run at 4 C and reagents were prepared in PBS/1% FBS buffer. 10,000 cells were incubated with test antibody in 50 uL volume for 4 hours. Cells were washed twice and incubated in 50 uL goat anti-human IgGFc-AlexaFluor647 conjugate for 15 minutes. Cells were washed, resuspended in buffer supplemented with Dapi, and analyzed on a flow cytometer. Dead cells, identified by high Dapi staining, were excluded from the analysis. For the determination of KD values, a plot of the median fluorescence intensity as a function of test antibody concentration was fitted nonlinearly using a one site binding isotherm model.

human CD73 V144K + K180A = target: T3, human CD73 V144K + K180A (human, UniProt P21589 27-553); experiment: SPR ProteOn, His-tagged CD73 variant on HTG chip
T3 chain: T1 sequence with V144K, G185N, T350A

CD73 chimera KO_Linker = target: T4, CD73 chimera KO_Linker (human; chicken (Gallus gallus)); experiment: SPR ProteOn, His-tagged CD73 variant on HTG chip
T4 construct: Human limits converted from mature numbering (+26); also called KO_292-310; linker region-swapped CD73
T4 chain: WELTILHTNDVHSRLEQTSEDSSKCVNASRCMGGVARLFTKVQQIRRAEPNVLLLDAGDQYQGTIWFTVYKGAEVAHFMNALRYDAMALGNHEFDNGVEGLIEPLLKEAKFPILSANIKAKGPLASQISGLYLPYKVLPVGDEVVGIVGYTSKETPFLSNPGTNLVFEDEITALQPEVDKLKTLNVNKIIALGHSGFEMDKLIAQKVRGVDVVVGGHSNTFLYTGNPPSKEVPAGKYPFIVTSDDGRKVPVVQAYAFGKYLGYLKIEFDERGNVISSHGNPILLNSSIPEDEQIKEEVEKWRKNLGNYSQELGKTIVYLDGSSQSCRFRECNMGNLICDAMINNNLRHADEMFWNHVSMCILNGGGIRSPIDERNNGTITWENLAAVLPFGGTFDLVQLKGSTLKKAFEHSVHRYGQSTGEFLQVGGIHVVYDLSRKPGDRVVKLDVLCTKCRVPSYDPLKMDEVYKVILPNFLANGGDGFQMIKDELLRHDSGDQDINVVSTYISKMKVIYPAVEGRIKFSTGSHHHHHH

human CD73 K180A = target: T5, human CD73 K180A (human, UniProt P21589 27-553, K180A); experiment: SPR ProteOn, His-tagged CD73 variant on HTG chip
T5 sequence: T1 sequence with G185N

B1: MEDI9447 (antibody, V domains shown)
VH: EVQLLESGGGLVQPGGSLRLSCAASGFTFSSYAYSWVRQAPGKGLEWVSAISGSGGRTYYADSVKGRFTISRDNSKNTLYLQMNSLRAEDTAVYYCARLGYGRVDEWGRGTLVTVSS
VL: QSVLTQPPSASGTPGQRVTISCSGSLSNIGRNPVNWYQQLPGTAPKLLIYLDNLRLSGVPDRFSGSKSGTSASLAISGLQSEDEADYYCATWDDSHPGWTFGGGTKLTVL
notes: also called clone 10.3 antibody; 73combo3
B1 was tested, and the binding result (human CD73 K180A + N185G) was “no binding”, the Kd (cynomolgus CD73 on cells) was 0.084 nM and the koff (human CD73 V144K + K180A) was 0.00425 s⁻¹. The kon (human CD73 V144K + K180A) was 1.58e+06 M⁻¹ s⁻¹, the kon (CD73 chimera KO_Linker) was 5.57e+06 M⁻¹ s⁻¹ and the koff (human CD73 K180A) was 0.000154 s⁻¹. It also gave a kon (human CD73 K180A) of 3.45e+06 M⁻¹ s⁻¹.
